Assay type in all cases: biochemical, Quillaja saponaria
Experiment [1] in a line: Experiment 4-2: screening of glucosidases for deglycosylation with purified QS-18 (1 mg/ml) at pH 6 and 30 deg C. To be noted: pH 6, 30 degC, 18 hrs, clarified lysate, LCMS/MS. Put shortly: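 Enzyme activity derived from LC-MS/MS analysis after MeCN quench. Substrate QS-18 (1 mg/ml final) was exposed overnight (18 h, 30 °C, pH 6 phosphate buffer) to clarified lysates containing candidate glucosidases.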

The nature of experiment [2]: Experiment 4-4: screening of glucosidases for deglycosylation of QS-18 in crude bark extract (1 in 20 dilution) to QS-21. The conditions noted are these: CBE 1 in 20 dilution, pH 6, 25 degC, 18 hours; % conversion of Middle Peak by UV HPLC. Put shortly: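 Clarified glucosidase lysates were incubated with pH 6 crude bark extract (1 in 20) in potassium phosphate buffer pH 6 for 18 h at 25 °C with shaking, then quenched with MeCN. UV HPLC with MS/MS-supported peak identity; activity is % conversion of the extract's Middle Peak (QS-18 family) toward the QS-21 peak.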

A short description of experiment [3]: Experiment 4-1: screening of glucosidases for deglycosylation with purified QS-18 (0.04 mg/ml) at pH 7.5 and room temperature. The conditions noted are these: pH 7.5, room temperature, 20 h, clarified E. coli lysate, QS-18 2150 to QS-21 1988 by LCMS/MS. Put shortly:
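Deglycosylation measured by LC-MS/MS as % conversion after 20 h room-temperature incubation of QS-18 phenyl fraction (0.04 mg/ml final) with polymyxin B/lysozyme lysates, pH 7.5 phosphate, of E. coli BL21(DE3) expressing each enzyme; MeCN quench. Positives exceeded negative control by >3 S.D.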

A value given as a limit tells only on which side of the number the result lay.

B1: 63 (protein, listed as Gynuella sunshinyii)
chain: MFDPVTILKQLNREEKVQLLCGLDAWHLHGVERLGIPSITLTDGPHGVRLAQSHDVFDSVDATVFPVEAAMAATWNVGLIKELAGAIAKECQQLGVSVLLGPGVNGKRSPLGGRNFEYFSEDPYLTGAMASNFVEGVQSQGVGACLKHFAGNEQETRRFLINSVIDERTLQEMYIAPFAKAIRESRPWTVMGAYNSVNGQFACQNSHLLQDILRDQLGFDGLVMSDWGAVGDKVACHQHGLDLEMPGPADRDQQLLDALDNGDMSEVVLDSRVLKVLELIHKSVTHKRDVQVDFERHHELAIEVACDSAVLLKNSGNLPLDKSRSIGLIGQFAKHPRFQGGGSSHMNPRHLSNAFEAFCSRAEVSWAMGYEELEMTDEMLREAVALAKRVDQVVLLTGTTDALESEGFDRSNMRLPEAHVELIKAVYQTNSNVVVVMYAGSALETRQIEDYAPSLMHAWLPGEGGGEALARLLFGEVSPSGKLSETFPVRLEHNPTYESFPGNKADTIYNEGIFTGYRYYDTKKLPVQYPFGYGLSYTSFAYSDLSYDASCREVAVNVTNIGDMAGAEVVQVYIHDEHSTLRRPDQELKGFAKVMLQPGETQRVSIALDEQAFAYFVTHLQRFAEESGRFEIRVGSSSRDIHESLWIELESDIECRQIPTLNDTVEDWLRDDRTRPILEDAFAQVGFTKDHSFYALTLGFPMTLLKKFMPMMGLTEQQCESLKDKLGLE
For the molecule B1, the “Expt 4-2 % conv” value in experiment [1] turned out to be 54.2%. In addition, the “Expt 4-4 % conv” value in experiment [2] is less than 3%. Moreover, in experiment [3], the “Expt 4-1 % conv” value came to 95.6%.

B2: 229 (protein, listed as Nectria haematococca)
chain: MASVDIPAILATLSLEEKVSLLAGKNLWETVPVPSKGVPNVKVSDGPNGARGASFAGGTTAACFPAACLMASTFDVKLAKRIGSALAEETQSKGARCLLAPTMCLHRHPLGGRNFESFSEDPLLTGKMAARVVEGLQDKGVSATIKHFAVNEQETDRLTVDETVNERALRELYLRPFEIAVKEANPWAVMTAYNKINGHHADCHPFTLKKVLRGDWGWNGLVMSDWGGTNSTPDSLEAGLDLEMPGPTRWRKPEDVIAAIKEGKTSEKTIDERATNVLRFLERLGCFKDPTIPDEKAINKPEHQALIREAGSKGIVLLKNQDKILPLSKEKVKGKKIALLGHAKIGLAHGGGSASVSAHYKVTPWDALHEALGDSVEFSYAKGAHTFRTLPAIAENVVGLDGKPGFTFKVYEPGSSEPIETRHGHADSEVSALGSFGFLNKDVSLEGAFTPQETAQYYFTCSGLGPSKLIIDDKVVYEQTENCSDAMGFLFGGVAAPEFKVALEAGRQYKLVLRTSPPSANDREDLGILEGLCGLRVGSMSESEHDRDLVSEAVEVAKNADYAVIFTGHEPFWETEGQDQVSFNLPKDGSQDRLISAVAAANPNTVVVNSTGVAIAMPWLNEIQGFLQTWYPGQECGNSIADVLTGAQTPEGHLTCTFPKKIEDCPAYGNFPGEYDNGKLKVTYKEGVFIGYRHFDRLPADKVNFPFGFGLSYTTFDFSSLEVKESGEGYTASLKVSNTGDVVGAIAVQVYVGAAQTAEENPVKQLVAFEKVTVKPGETASVEVPVRTRDFGFFDESKQKWVVKGGDYKFLIGKSARDIVLESTVAVKEQSFDL
For B2, in experiment [1], the “Expt 4-2 % conv” value is reported as 14.2%. In experiment [2], the “Expt 4-4 % conv” value is on record as less than 3%. Further, the “Expt 4-1 % conv” value in experiment [3] is recorded as 91.1%.

B3: 176 (protein, listed as Streptomonospora sp.)
chain: MTTANRAAHAADAAREPQVEAALARLDLDGRIRLLSGATMWAIAPNPDIGLERLVMSDGPVGVRGEHWTPDDPALQLPSPTALAATWDTELIRTVGRTLAQEARRKGVHVLLAPTVNIHRSPLGGRHFECYSEDPLLTGRIGTAYVDGVQDGGVGTTVKHFVANDSETDRFTVDVRVDERTLREIYLAPFEAIVDGARPWGVMAAYNGVNGTTMTEHARLNAVLRDEWGFDGFIVSDWTAARDTVGCALAGMDVAMPGPSTVYGENLRAAVREGRVPEGAVEAMARRVLRLAARVGALEGAEPAVAPAALPPAIDGRAVAREAAARSFTLLRNEGRALPIDPARVGSVALIGLAADEARTSGGGSATVFTEHTVSPREGLRAALPESVRLDYAVGADPRASLPPLAGPLTAAFRDADGTVLATERLADGTARWIGELPDGVTAEGLSTIEVSGTLTPAYTGTHVFGAKGVGHFRLAVGGRVGFDGVNEVDGDDPGAGFLNPPESTAEFALTAGEAVEVSVVATVPGVSADFAFIGFSLNHSEPRAGDDELIEEAVRTAAGADVAIVIAATTEEVESEGFDRDSLELPGRQDELVSRVAAANPRTVAVVNTGSPVVMPWRGDVAAVLLTWFGGQELGAALADVLLGAEEPGGRLPTTWPAEQADVPVIGVRPDGGVLEYSEGVFVGYRAWQRLGAEPAYWFGHGLGYTTWDYTGADAAVRLDGGVSVTARLANTGARRGREVVQVYVSPQEEGGAPERPRRWLAGFAPVVAEPGASAEAVVEVPARAFQVWDSAAHDWRTVPGGYDVLVGRSVADTPVSARVEIAG
Consider B3, for which the “Expt 4-2 % conv” value in experiment [1] is 0.4%. Moreover, the “Expt 4-4 % conv” value in experiment [2] is reported as less than 3%. For the same molecule, the “Expt 4-1 % conv” value in experiment [3] is 1.2%.

The values above are taken from US20240026407A1, “MODIFICATION OF SAPONINS” (GLAXOSMITHKLINE BIOLOGICALS SA, priority 2020, published 2024).
